Measured values from patent US6294648A, “Protein having proteinase inhibitor activity” (Bayer Corporation, priority 1999, dated 2001).
Entries after “also recorded” stand apart in the source; their conditions may differ. Read-outs that look alike come from different tables or passages of the source.

What was measured:
plasma kallikrein = plasma kallikrein (Homo sapiens, UniProt P03952); settings: cited from earlier work
proteinase 3 = target: T1, proteinase 3 (Homo sapiens, UniProt P24158); settings: cited from earlier work
T1 sequence (P24158 28-256): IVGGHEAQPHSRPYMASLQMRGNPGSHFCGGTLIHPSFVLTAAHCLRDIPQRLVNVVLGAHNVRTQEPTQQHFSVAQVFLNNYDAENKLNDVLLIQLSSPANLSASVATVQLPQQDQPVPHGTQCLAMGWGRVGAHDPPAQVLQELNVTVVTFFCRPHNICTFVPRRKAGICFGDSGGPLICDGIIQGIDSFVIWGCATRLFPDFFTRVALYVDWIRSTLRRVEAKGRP

cathepsin G = target: T2, cathepsin G (Homo sapiens, UniProt P08311); settings: cited from earlier work
T2 sequence (P08311 21-255): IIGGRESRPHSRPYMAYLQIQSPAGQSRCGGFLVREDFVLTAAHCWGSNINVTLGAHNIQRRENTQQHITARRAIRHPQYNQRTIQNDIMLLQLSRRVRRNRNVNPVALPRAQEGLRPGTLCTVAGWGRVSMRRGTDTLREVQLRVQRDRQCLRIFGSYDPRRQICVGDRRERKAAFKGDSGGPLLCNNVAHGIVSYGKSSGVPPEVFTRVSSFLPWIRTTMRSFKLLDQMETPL

[1] = system: neutrophil-induced ECM solubilization; settings: cited from earlier work
Bovine chymotrypsin = target: T3, Bovine chymotrypsin (Bos taurus, UniProt P00766); assay: Chymotrypsin assay to monitor protein folding; type: biochemical
T3 construct: purchased Sigma (St. Louis, Mo.)
Method: To identify the properly folded form from reverse phase purification, the inhibition of chymotrypsin was measured. Chymotrypsin (20 nM) was incubated with refolded BTL.009 reverse phase fractions (0.04 absorbance units at 280 nm) in 100 μl of 50 MM Hepes (pH 7.5), 0.15 M NaCl, 2.0 mM CaCl2, and 0.01% Triton X-100 (buffer A) at 37° C. After 30 minutes, Suc-AAPF-pNa (100 μM final concentration) was added, after which the residual enzymatic formation of pNa was monitored at 410 nm.

[2] = target: T4, human neutrophil elastase (Homo sapiens, UniProt P08246); assay: Determination of equilibrium dissociation constants, neutrophil elastase; type: biochemical
T4 construct: purchased Athens Research and Technology, Inc. (Athens, Ga.)
T4 sequence (P08246 30-267): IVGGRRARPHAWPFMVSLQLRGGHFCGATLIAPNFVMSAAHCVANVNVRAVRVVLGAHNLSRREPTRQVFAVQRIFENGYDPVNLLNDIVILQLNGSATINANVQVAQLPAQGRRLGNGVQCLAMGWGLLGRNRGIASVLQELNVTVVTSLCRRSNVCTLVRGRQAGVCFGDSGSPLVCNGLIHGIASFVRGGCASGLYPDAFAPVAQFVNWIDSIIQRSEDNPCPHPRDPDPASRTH
Method: (§1) The BTL.009 concentration was determined by amino acid analysis. The concentration of human neutrophil elastase, cathepsin G, and proteinase 3 were based on the manufacturer's specifications. […] Hydrolysis of AMC-conjugated peptides was monitored on a Hitachi model F4500 fluorometer (excitation=370 nm, emission=432 nm) over the first 2 minutes of the reaction. Ki* values were determined from plots of fractional rate versus inhibitor concentration, which were fit by nonlinear regression analysis (Enzifitter™ by Bio soft, Cambridge UK) as described (44). Ki values were obtained by correction for the effect of substrate as described (44).

[3] = target: T5, human neutrophil cathepsin G (Homo sapiens, UniProt P08311); assay: Determination of equilibrium dissociation constants, cathepsin G; type: biochemical
T5 construct: purchased Athens Research and Technology, Inc. (Athens, Ga.)
T5 sequence (P08311 21-255): T2 sequence (P08311 21-255)
Method: as §1

[4] = target: T6, human neutrophil proteinase 3 (Homo sapiens, UniProt P24158); assay: Determination of equilibrium dissociation constants, proteinase 3; type: biochemical
T6 construct: purchased Athens Research and Technology, Inc. (Athens, Ga.)
T6 sequence (P24158 28-256): T1 sequence (P24158 28-256)
Method: as §1

trypsin [5] = assay: Inhibitory activity of BTL.009 towards trypsin / trypsin-like proteinases; type: biochemical
leukocyte elastase = target: T7, leukocyte elastase (Homo sapiens, UniProt P08246); settings: cited from earlier work
T7 sequence (P08246 30-267): T4 sequence (P08246 30-267)

chymotrypsin = settings: cited from earlier work; for Ki: read-out: Ki, chymotrypsin
platelets = settings: cited from earlier work
thrombin = thrombin (Homo sapiens, UniProt P00734); settings: cited from earlier work
trypsin [6] = target: T8, trypsin (Bos taurus, UniProt P00760); settings: cited from earlier work
T8 construct: gene PRSS1
T8 sequence (P00760 24-246): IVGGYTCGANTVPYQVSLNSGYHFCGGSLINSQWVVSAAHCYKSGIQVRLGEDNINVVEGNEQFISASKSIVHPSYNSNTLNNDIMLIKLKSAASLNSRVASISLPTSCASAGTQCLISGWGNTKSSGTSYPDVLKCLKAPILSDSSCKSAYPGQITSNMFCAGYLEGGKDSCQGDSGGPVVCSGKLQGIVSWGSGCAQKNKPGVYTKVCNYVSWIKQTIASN

[7] = read-out: Ki, leukocyte elastase

Sequence of plasma kallikrein (P03952 20-638, species assumed): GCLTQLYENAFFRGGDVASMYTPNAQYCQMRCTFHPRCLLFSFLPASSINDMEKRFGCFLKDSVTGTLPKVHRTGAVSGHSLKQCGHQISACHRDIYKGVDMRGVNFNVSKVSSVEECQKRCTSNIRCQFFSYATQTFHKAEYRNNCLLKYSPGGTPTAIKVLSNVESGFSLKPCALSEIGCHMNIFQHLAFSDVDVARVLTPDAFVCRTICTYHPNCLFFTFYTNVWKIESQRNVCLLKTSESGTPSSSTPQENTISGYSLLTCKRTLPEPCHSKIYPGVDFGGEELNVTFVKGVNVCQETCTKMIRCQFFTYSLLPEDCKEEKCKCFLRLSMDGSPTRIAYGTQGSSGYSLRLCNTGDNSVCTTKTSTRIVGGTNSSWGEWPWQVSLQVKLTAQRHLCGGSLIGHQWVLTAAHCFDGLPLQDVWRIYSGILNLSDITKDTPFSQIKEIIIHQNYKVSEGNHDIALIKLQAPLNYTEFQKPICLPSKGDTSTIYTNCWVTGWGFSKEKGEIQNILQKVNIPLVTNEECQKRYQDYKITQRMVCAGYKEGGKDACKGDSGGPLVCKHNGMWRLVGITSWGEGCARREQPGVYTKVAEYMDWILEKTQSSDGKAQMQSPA

Substance: APP KD variant (T11D, P13H, M17A, 118H, S19P and F34Y): phage display / consensus mutant APP KD differing at 6 key residues; plasma kallikrein inhibitor
- Ki (plasma kallikrein): ~15 pM
- increase in binding affinity to plasma kallikrein compared to wild-type APP KD (plasma kallikrein): more than 10,000 fold

Substance: Alpha 1-proteinase inhibitor: a serpin family serine proteinase inhibitor; major serum inhibitor of elastase and cathepsin G
- inhibition of proteinase 3, in words (proteinase 3): inhibit
- inhibition of cathepsin G, in words (cathepsin G): potent inhibitor
- inhibition of cathepsin G, in words (cathepsin G; listed as Alpha-1-proteinase): inhibit
- inhibition of neutrophil-induced ECM solubilization [1]: completely or nearly completely inhibit

Substance: BTL.009: synthetic, refolded peptide corresponding to the EST-derived human Kunitz domain KQDVCEMPKETGPCLAYFLHWWYDKKDNTCSMFVYGGCQGNNNNFQSKANCLNTC (SEQ ID NO:1)
- preference for chymotrypsin-like over trypsin-like proteases (Bovine chymotrypsin): inhibit preferentially chymotrypsin-like proteases over trypsin-like proteases
- inhibition of leukocyte elastase, in words [2]: strong inhibitor; also recorded: elastase inhibitor
- inhibition of cathepsin G, in words [3]: weak inhibitor
- inhibition of proteinase 3, in words [4]: moderate inhibitor
- inhibitory activity towards trypsin compared with neutrophil neutral serine proteinase (trypsin [5]): significantly greater inhibitory activity towards a neutral serine proteinase secreted by neutrophils than towards trypsin
- expected activity towards trypsin-like proteinases (trypsin [5]; expected, not tested): little activity towards all trypsin-like proteinases

Substance: TFPI: Tissue factor pathway inhibitor, another member of the Kunitz family
- Ki (leukocyte elastase; [7]): 400000 pM
- Ki (cathepsin G): 100000 to 200000 pM
- Ki (chymotrypsin): 750 pM

Substance: Tannin
- inhibition of leukocyte elastase, in words (leukocyte elastase): specifically inhibits leukocyte elastase in an irreversible manner

Substance: Thrombospondin 1: inactivates cathepsin G by binding near the enzyme's active site
- inhibition of cathepsin G, in words (cathepsin G): inactivates cathepsin G
- cathepsin G-mediated platelet aggregation (platelets): blocked

Substance: alpha 1-proteinase inhibitor [Arg358]: alpha 1-proteinase inhibitor P1 variant
- inhibition of leukocyte elastase, in words (leukocyte elastase): not of leukocyte elastase
- inhibition of trypsin-like molecules such as thrombin, in words (thrombin): potent inhibitor

Substance: alpha-2-macroglobulin: member of the serpin proteinase inhibitor family (as stated)
- inhibition of leukocyte elastase, in words (leukocyte elastase): inhibit
- inhibition of proteinase 3, in words (proteinase 3): inhibit
- inhibition of cathepsin G, in words (cathepsin G): inhibit

Substance: aprotinin
- inhibition of leukocyte elastase, in words (leukocyte elastase): does not inhibit
- Ki (trypsin [6]): 20 pM
- Ki (chymotrypsin): 1300 pM

Substance: double mutant hPSTI variant: hPSTI with P1 lysine to leucine and P'1 isoleucine to glutamate (DSLGREAKCYNELNGCTLEYDPVCGTDGNTYPNECVLCFENRKRQTSILIQKSGPC; UniProt P00995 24-79, looked up, variant K18L I19E)
- Ki (leukocyte elastase; [7]): 37 pM
- Ki (chymotrypsin): 24 pM

Substance: elafin: member of the mucous proteinase inhibitor family (AQEPVKGPVSTKPGSCPIILIRCAMLNPPNRCLKDTDCPGIKKCCEGSCGMACFVPQ; Elafin; UniProt P19957 61-117, looked up)
- Ki (leukocyte elastase; read-out: Ki, elastase): 600 pM
- inhibition of proteinase 3, in words (proteinase 3): not proteinase 3
- inhibition of cathepsin G, in words (cathepsin G): not

Substance: hPSTI: a member of the Kazal serine proteinase family (DSLGREAKCYNELNGCTKIYDPVCGTDGNTYPNECVLCFENRKRQTSILIQKSGPC; UniProt P00995 24-79, looked up)
- inhibition of leukocyte elastase, in words (leukocyte elastase): completely inactive
- inhibition of trypsin, in words (trypsin [6]): potent inhibitor
- inhibition of chymotrypsin, in words (chymotrypsin): completely inactive

Substance: single mutant hPSTI variant: hPSTI with P1 residue lysine substituted with leucine (DSLGREAKCYNELNGCTLIYDPVCGTDGNTYPNECVLCFENRKRQTSILIQKSGPC; UniProt P00995 24-79, looked up, variant K18L)
- Ki (leukocyte elastase; [7]): 25 pM
- inhibition of trypsin, in words (trypsin [6]): inactive
- Ki (chymotrypsin): 8000 pM
